Source: article PMC6945068

Molecular target: ^35S-labelled in vitro-translated Flag-B56γ (X. laevis PP2A regulatory B subunit B56γ)
Test: pull-down (amylose beads) with autoradiography quantification
Details: 1 h, read off a plot

Chain of MBP-fused Apc1-loop^500 wild type (residues 515-584 of Xenopus tropicalis Apc1) (Q08D52 entry or part of it, stated change not applied): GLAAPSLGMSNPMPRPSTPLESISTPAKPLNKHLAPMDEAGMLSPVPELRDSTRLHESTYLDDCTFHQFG

response (anaphase extract (Ana) supplemented with CycB∆167, 23°C, lane 16, parent: est. 3.3): 1.1 A.U. | response (interphase extract (Inter), 23°C, lane 12, parent: est. 0.95): 1.1 A.U.
Substance: MBP-fused Apc1-loop^500 wild type (residues 515-584 of Xenopus tropicalis Apc1) (from UniProt Q08D52) T532A; T539A; S558A
